For one assay, the target named is HLA-A*02:12. Nature of the assay: IEDB peptide-MHC binding, purified MHC/direct/fluorescence; filed as Kd, often an IC50 or EC50 that approximates it; ≥ and ≤ were set here for values at or beyond the usual limits of such assays. The conditions noted are these: source organism: Vibrio cholerae V52.
In the next assay the target is HLA-A*69:01. The description is as above.
For a further assay, the target named is HLA-B*35:01. Nature of the assay: IEDB peptide-MHC binding, purified MHC/competitive/radioactivity; filed as Kd, often an IC50 or EC50 that approximates it; ≥ and ≤ were set here for values at or beyond the usual limits of such assays.
Another assay concerns the target HLA-B*54:01. The assay is described as above.
For the next assay, the target named is HLA-B*51:01. The assay is described as above.
Another assay deals with HLA-B*53:01. Described as above.
For another assay, the target named is HLA-B*07:02. Described as above.
A further assay addresses HLA-B*57:01. Nature of the assay: IEDB peptide-MHC binding, purified MHC/competitive/fluorescence; filed as Kd, often an IC50 or EC50 that approximates it; ≥ and ≤ were set here for values at or beyond the usual limits of such assays. To be noted: source organism: Burkholderia pseudomallei K96243.
The next assay addresses HLA-A*26:01. The description is as above. The conditions noted are these: source organism: Burkholderia pseudomallei K96243.
The target of the next assay is HLA-B*39:01. The description is as above. The conditions noted are these: source organism: Burkholderia pseudomallei K96243.
In a further assay the target is HLA-A*31:01. The assay is described as above.
A further assay has as its target HLA-B*18:01. The assay is described as above. To be noted: source organism: Burkholderia pseudomallei K96243.
Another assay deals with HLA-B*15:17. The assay is described as above. The conditions noted are these: source organism: Burkholderia pseudomallei K96243.
The next assay has as its target HLA-B*27:03. Described as above. The conditions noted are these: source organism: Burkholderia pseudomallei K96243.
The next assay concerns the target HLA-A*24:03. The assay is described as above. The conditions noted are these: source organism: Burkholderia pseudomallei K96243.
A further assay deals with HLA-B*46:01. The description is as above. The conditions noted are these: source organism: Burkholderia pseudomallei K96243.
In assay [1] the target is HLA-A*03:01. The description is as above.
In a further assay the target is HLA-A*11:01. The assay is described as above.
A further assay addresses HLA-A*02:01. The assay can be described thus: IEDB peptide-MHC binding, purified MHC/direct/fluorescence; filed as Kd, often an IC50 or EC50 that approximates it; ≥ and ≤ were set here for values at or beyond the usual limits of such assays. To be noted: source organism: Camelpox virus M-96.
In another assay the target is HLA-A*02:03. Described as above. To be noted: source organism: Variola virus.
The target in a further assay is HLA-A*02:11. The assay is described as above.
In assay [2] the target is HLA-A*03:01. The description is as above. To be noted: source organism: Bacillus anthracis.
Setting [3] is: source organism: Triticum aestivum.
[4] abbreviates: source organism: Burkholderia pseudomallei K96243.
Setting [5] is: source organism: SARS coronavirus Tor2.
Where [6] appears, read: source organism: Mammarenavirus guanaritoense.
Where [7] appears, read: source organism: Vaccinia virus WR.
The mark [8] stands for this setting: source organism: Encephalitozoon cuniculi GB-M1.
Setting [9] is: source organism: Mammarenavirus brazilense.

Some results are limits rather than exact numbers.

Here are results for 16 sequences from the Immune Epitope Database (IEDB).

As usually defined, the Kd is the free concentration of one partner at which half of the binding sites on the other are occupied at equilibrium, for simple one-to-one binding.

Turning to FLILCSVLL, the dissociation constant (Kd) was 7 nM with HLA-A*02:12 and 4180 nM with HLA-A*69:01 (source organism: Vibrio cholerae).
As to PPYCTIAPV, the Kd with HLA-B*35:01 (setting [3]) is at least 21500 nM; with HLA-B*54:01 (setting [3]) it was 1080 nM; in the assay with HLA-B*51:01 (setting [3]), at least 27400 nM; in the assay with HLA-B*53:01 (setting [3]) it was 11600 nM; in the assay with HLA-B*07:02 (setting [3]) it was 206 nM.
On to LMRRFRFTV, for which the Kd in the assay with HLA-B*57:01 is at least 20000 nM; with HLA-A*26:01, at least 20000 nM; with HLA-B*39:01 it was at least 20000 nM; in the assay with HLA-A*31:01 (setting [4]) it was 262 nM; with HLA-B*18:01, at least 20000 nM; in the assay with HLA-B*15:17 it was at least 20000 nM. Further, the Kd in the assay with HLA-B*27:03, in the assay with HLA-A*24:03, with HLA-B*46:01 and in the assay with HLA-A*03:01 [1] (setting [4]) was at least 20000 nM throughout.
Regarding MPASWVMRIM, the Kd with HLA-B*35:01 (setting [5]) amounted to 18.2 nM; in the assay with HLA-B*54:01 (setting [5]), 68.6 nM; in the assay with HLA-B*51:01 (setting [5]), 8.61 nM; with HLA-B*53:01 (setting [5]), 62.8 nM; with HLA-B*07:02 (setting [5]) it was 8.51 nM.
Take KPINLSNSV: the Kd in the assay with HLA-B*35:01 (setting [6]) came out at 188 nM; with HLA-B*54:01 (setting [6]), 193 nM; with HLA-B*51:01 (setting [6]), 2160 nM; with HLA-B*53:01 (setting [6]) it was 1150 nM; with HLA-B*07:02 (setting [6]) it was 22.9 nM.
Regarding SPPLISILMI, the Kd with HLA-B*35:01 (setting [7]) was at least 69900 nM; with HLA-B*54:01 (setting [7]), 7630 nM; in the assay with HLA-B*51:01 (setting [7]), 1150 nM; with HLA-B*53:01 (setting [7]), 2220 nM; in the assay with HLA-B*07:02 (setting [7]), 1010 nM.
With ILSFPYLFK, the Kd with HLA-A*31:01 (setting [8]) was at least 20000 nM; with HLA-A*11:01 (setting [8]), 3.8 nM; with HLA-A*03:01 [1] (setting [8]), 2.9 nM.
As for QPQEQVPL, the Kd with HLA-B*35:01 (setting [3]) was at least 87800 nM; in the assay with HLA-B*54:01 (setting [3]), at least 43200 nM; in the assay with HLA-B*51:01 (setting [3]) it was 41 nM; with HLA-B*53:01 (setting [3]), at least 87700 nM; with HLA-B*07:02 (setting [3]), at least 87300 nM.
For FLQQSIFRF, the Kd was 154 nM with HLA-A*02:01, 747 nM with HLA-A*02:03, 2 nM with HLA-A*02:11 (source organism: Variola virus) and at least 20000 nM with HLA-A*69:01 (source organism: Camelpox virus M-96).
As for DPTFQLLNM, the Kd in the assay with HLA-B*35:01 (setting [7]) was 1130 nM; in the assay with HLA-B*54:01 (setting [7]), at least 78100 nM; with HLA-B*51:01 (setting [7]), 3350 nM; with HLA-B*53:01 (setting [7]) it was 237 nM; with HLA-B*07:02 (setting [7]), at least 77500 nM.
Take RLYNFSFLN: the Kd with HLA-A*02:11 (source organism: Bacillus cereus H3081.97) is at most 1 nM; with HLA-A*03:01 [2], 492 nM.
On to NPAWRKAVFI, for which the dissociation constant Kd in the assay with HLA-B*35:01 (setting [5]) is at least 69900 nM; with HLA-B*54:01 (setting [5]), at least 69900 nM; with HLA-B*51:01 (setting [5]) it was at least 41400 nM; in the assay with HLA-B*53:01 (setting [5]), at least 41800 nM; in the assay with HLA-B*07:02 (setting [5]) it was 3370 nM.
Consider VPANSTVLSF, for which the Kd was 355 nM in the assay with HLA-B*35:01 (setting [5]); 16900 nM in the assay with HLA-B*54:01 (setting [5]); 3250 nM in the assay with HLA-B*51:01 (setting [5]); 95.2 nM in the assay with HLA-B*53:01 (setting [5]); 1710 nM with HLA-B*07:02 (setting [5]).
As to HAGAKSFYK, the Kd in the assay with HLA-A*11:01 (source organism: Influenza A virus (A/California/04/2009(H1N1))) was determined as 5.5 nM.
As for SPPIPMSRL, the Kd in the assay with HLA-B*35:01 (setting [7]) is at least 53100 nM; with HLA-B*54:01 (setting [7]) it was at least 41500 nM; with HLA-B*51:01 (setting [7]) it was 912 nM; in the assay with HLA-B*53:01 (setting [7]), 9290 nM; in the assay with HLA-B*07:02 (setting [7]), 0.766 nM.
Take TPTQLAETI: the Kd with HLA-B*35:01 (setting [9]) worked out at 660 nM; with HLA-B*54:01 (setting [9]), 15300 nM; with HLA-B*51:01 (setting [9]) it was 1420 nM; in the assay with HLA-B*53:01 (setting [9]), 183 nM; with HLA-B*07:02 (setting [9]), 1800 nM.
